Protein production data for 13 sequences are collected here from a protein production outcome set (Wang et al. 2014).

The data set in a line: label from the status in PepcDB records.

Regarding “MAGALITASAACAEDAPDFRLDLDTGGHTARIARLAFTPDGEDIVSASDDKTIRIWDWQSGVTLRTIRGYLGNGSDGKIFAVSVSPDGKTIAAGGYFGAGLGDKPPYGDIRLFDFATGKMKAVLRAADYATYDLAFSPDGKTLAAGGGDGMVYLWRLDDKSATGWTLDKKLDADSWHIDKLAFAAAGTRLAATTTDNGIRLWDVAKGEEIALPDEAEPLRDVSVLALAISQDGSLFATGSKDGQVQLWRAADGTLVHAMPKQDFLIGSLTFAKGSRLVASCGYRCADKHRSIVWNTDSGEKLLDYSGHDGTVYASAANADGSLVATAGGTRNAIQVWDPATGERKALLQGVGEPVTAIGIDAANGIIAWGNTNPCPERVACPEQLGALDKRLELPTTERFFDDPQPLTEPGSFARAAQSDGEWSLHATKGGKDALENAVLEIANGGKVVRSIENDATNGFAHSAFTLIDNGLGLITGGNDGTLLEYKAATARVSGEFTGHTGEINAMAASEKAGLLVTGSADQTLRLWNLKTHELIVSMFFAGPQWIAWMPQGYYYSSDEGDKLIGWHVNQGRDHEGRFIRAGQLKKYLWSPEMVRRAIILRSAKQAVKEMRPGVDNELQKLLQRKPPEFGVRLADDQSKVRDGYVAVEITGAKEAGTDVAGFSILSNSRNVGDIATRSAEGDKTTVEVPVENGQNTIRITGTNEYGYLTERSVTALARKTEKAEAKGKLYVAVIGVDKYPFLTDACSGHACDLRYPVDDATEFLEVVAQKSAPLFSSMETLVLVNREALDESPDKAKQTYTVASADNIMEPDSHTIDDQLADFLDRPGEHDTTIVFVAGHGINIDEDYYFIPTDGRKQDADRWKRSSLVDWGDIQKSVERAKGMRFMLLDTCHAANAFNPRLEKDAQDARIVVFSATAANNTAAELPELGHGVFTYSILEGLRGKARTSDGGITLFGLADFISHEVVRLTASKQKPFYYVGGVENIVLAEP”, the protein production entry was “failed”. On to “MAGAMRKMAVYLGLVEDDGYDGRGFDPDDDFEPELDPEPERDHRRHEPAHQSHGAHQSQRDEEVRVVQPPAQREPMPRAASLAAESSRPARIAPVASITQERASLEKSAPVIMPKVVSEREPYRITTLHPRTYNEARTIGEHFREGTPVIMNLTEMDDTDAKRLVDFAAGLVFGLHGSIERVTQKVFLLSPANVDVTAEDKARIAEGGFFNQSLEHHHHHH”, for which the protein production entry was “failed”. With “MAGASVAATTLKGDTSLLAGGAIRGAINAFGKDKKLKTQLASSGKLYGKYAKAASKIENLVLGGENISLVVDPP”, the protein production result is on record as “failed”. Turning to “MAGCGANDTSSTKEKASSEKSGVTKEITASVNKMETIISKLNDSVEKGDQKEIEKKGKELNSYWLSFENDIRSDYPFEYTEIEKHLQPIYTEAQKDKPDAGKIKTESESLKASLEDLTEAKKSGKKASDQLAKAADEYKGYVKEQSDQLVKATEAFTGAVKSGDIEKSKTLYAKARVYYERIEPIAESLGDLDPKIDARENDVEEGDKWTGFHKLEKAIWKDQDISGEKATADQLLKDVKELDGSIQSLKLTPEQIVAGAMELLNEAGISKITGEEERYSRIDLVDLMANVEGSEAVYQTVKSALVKDHSDLTEKLDTEFSEFEVLMAKYKTNDQSYTSYDKLSEKQIRELSTKLTTLSETMSKIANVLLEHHHHHH”, the protein production result is given as “not failed”.

With “MAGDVEGFCSSIHDTSVSAGFRALYEEGLLLDVTLVIEDHQFQAHKALLATQSDYFRIMFTADMRERDQDKIHLKGLTATGFSHVLQFMYYGTIELSMNTVHEILQAAMYVQLIEVVKFCCSFLLAKICLENCAEIMRLLDDFGVNIEGVREKLDAFLLDNFVPLMSRPDFLSYLSFEKLMSYLDNDHLSRFPEIELYEAVQSWLRHDRRRWRHTDTIIQNIRFCLMTPSSVFEKVGTFESDRQDSSI”, the protein production result is recorded as “failed”. As to “MAGDYHRGEMDIQEQAATYDAFGKMTKWGSLAISVLLLFFTLLFCTSAGFIGSAIASIVLLVLGVVLLKEKPTQSH”, the protein production entry is “failed”. Turning to “MAGENSDNEPSSPASPSSAGFNTDQLPISTSQNSENFSDEEEAAVDTQVIRDEPDEAEDEEEEEGEDLFNDTFMNDYRKMDENDQYESNGIDDSVDDERDLGQAMLDRRAADADLDARENRLANRKLPHLLHDNDSDDWNYRPSKRSRTTVPPRGNGGDPDGNPPSSPGVSQPDISMTDQTDDYQDEDDNDDEAEFEMYRIQGTLREWVMRDEVRRFIAKKFKDFLLTYVKPKNENGDIEYVPNKCSLEIDYKEFIHVHPNIAIWLADAPQPVLEVMEEVSEKVIFDLHPNYKNIHTKIYVRVTNLPVNDQIRNIRQIHLNTMIRIGGVVTRRSGVFPQLQQVKYDCNKCGAVLGPFFQNSYSEVKVGSCSECQSKGPFTVNVEQTIYRNYQKLTIQESPGTVPAGRLPRHKEVILLNDLIDCARPGEEIEVTGIYTNNFDLSLNTKNGFPVFATVVEANYVTKKQDLFSAYKLTQEDKTQIEELSKDPRIVERIIKSIAPSIYGHEDIKTALALAMFGGQEKNIKGKHRLRGDINVLLLGDPGTAKSQFLKYVEKTGQRAVYTTGKGASAVGLTAAVHKDPVTREWTLEGGALVLADRGICLIDEFDKMNDQDRVSIHEAMEQQSISISKAGIVTSLQARCSVIAAANPVGGRYDSSKSFAQNVELTDPILSRFDILCVVKDVVDPVTDEMLAEFVVNSHFKSQPKGGKMEDSDPEDGIQGSSGSTDPEVLPQNLLKKYLTYSKLYVFPKLGELDAKKLETVYANLRRESMNGQGVSIATRHLESMIRMSEAHARMHLRQYVTEEDVNMAIRVLLDSFISTQKFGVQRTLRESFKRYITYKKDFNSLLLVLLKELVKNALKFEEIISGSNSGLPTIEVKIEELQTKAKEYDIADLRPFFSSTDFSKAHFELDHGRGMIKCPKRLITW”, the protein production entry is recorded as “failed”. As for “MAGFMKNAMSYLGMSDVVDDEDDYIEEDEEQKPASKSAFDSDHTVTPLASTTAPAASSTTKPFPGGRVNRITTIHPKSYEDAQLVGRALRDGVPVVLNLTGVAEAVAYRIVDFSAGVVFGVRGSLERVTPRVFLLSPAQVNIKVEEPTKPASAHDLFADLEHHHHHH”, the entry is “failed”. As to “MAGFVPLRWPISRMSSAVPRYIVGIDLGTTHTVVSYADGGDPSRIEPLFLEQLVAPGQVAGRPLLPSVRYHPATGELAEADTALPWPVEETAPGCRPVIGEFARQLGSRSRGRLVASAKSWLCHTGVDRTADILPWGAPDEVPKVSPVEASASFLRHVRCAWNHRFPAHPLETQDVIVTIPASFDDAARALTVEAARRAGLANVRLLEEPQAACYDFLWTYRGRLAETLEGVNLLLVCDVGGGTTDFTLIRVDAGGSEPELERIAVGNHLMLGGDNIDLTLAHRLEPRLTGAERSLSATDLILLAEQCRRAKETLLAEQGPESVTVTLLGKGGGLIGGARSVELSRHEVLEVVLDGFFPRVGADAVPERRSGVVEFGLPYAADPAITRHAAAFLIRHRNDAGGAAPDALLLNGGVFHSPVIAGRMAEVVGSWCGRTPVMLRNPRPDQAVAFGAVAFGLSRRGLAVRRIGGGSARAYYLLVGDANERSRRGVCILPRGAAEGQEWTVERRNFLLSVGRPVRFHVFSSTVDSGHAPGDLAVLDEAGFGELPPLAVALQAQEQGDVEVRLAARLTAIGTLQLQCVAVGDPEQRWDLELQLRGGGPRPTASASLHPRAAEAQEHIGLIFGKKTRQFGPKAVKTLRNDLEKILGKREDWDTALCRELYAALLEGAPHRRRSADHERLWLSLAGYCLRPGFGAPLDDWRVGQVWNLYSQGLQFVNEAQNWSEWWIVWRRIAGGLRAEAQQRLFADVAGFIDPVRARRGNAEALAKKRAFEDMVRLAASLERLSAGDKTMLGGWLVQRLDKAPDSAELWWALGRVGARAPFHGSAHNLVAREVVEDWVELALQRDWKRQGFVAFAATLLARLTGDRERDLDATLRNRVAEKLVASSAPEIWLELVTEVRGLDASDEKRIFGEGLPPGLRLVDSAWGALEHHHHHH”, the protein production result is on record as “failed”. Regarding “MAGGHCGSFAAAAASSGEIVQLNVGGTRFSTSRQTLMWIPDSFFSSLLSGRISTLRDETGAIFIDRDPAAFAPILNFLRTKELDLRGVSINVLRHEAEFYGITPLVRRLLLCEELERSSCGSVLFHGYLPPPGIPSRKGTNTARSSVDARNGLSSMEGEARGSGTQPVLAGNGEDTIRLVDKLSVESWPVGVPVDPRKVLIVAGHHNWIVAAYAHFAVCYRIKESSGWQQVFTSPYLDWTIERVALNAKVVGGPHGDKDKMVAVASESSIILWSVQDGGSGSEIGVFSLGVPVDALFFIGNQLVATSHTGKVGVWNAVTQHWQVQDVVPITSYDTAGSFLLLGCNNGSIYYIDMQKFPLRMKDNDLLVTELYHDPSNDAITALSVYLTPKTSVSGNWIEIAYGTSSGAVRVIVQHPETVGSGPQLFQTFTVHRSPVTKIMLSEKHLVSVCADNNHVRTWTVTRFRGMISTQPGSTPLASFKILSLKRQRATAAIPLEMTSGLLENEMINKCLSRRLFPSPTSCLSGCHRLEKGYVRSRLWTALQSPRSLXESARAPAGWAPGQGATCSLATPTAASRCGTXPQPWTWSTRARTRTQAAPLRKSCSSCWTSVIXARPAAPRPTSALPPLCSSTAAFVSPAPAFSSSTTKPSMKQQPMVPRGLTERALCXPEQGGLRASTATGTCRLSISTELXRELSLRMVTRAQPRLRQKGQQQGSVLCVRGSPRGQREDVXGSPMWAXTCTDQRKVCQSPRKGQQRMKMSPKWSSGRKDSKQGDSLEERKFPIWHPHQVPLMEGPTPLVQHPRLQLRPLRHLGTERATPLARSTAC”, the protein production entry is “failed”.

On to “MAGKEFKQRIRQALNNASLRGALGRFADSYVVSREEVYAGRDFESLRQRIAAIKADAAGRYEELADRFSRAVEARGGKVFRAKDAAAAREYIYQVAKEHGVTEIVKSKSFASEEIHLNEFLQERGINPYETDLAEWILQLMPGERPSHMVMPAIHLPKEEVARVFSRYLGEPVEPDIKNMVRIARRELRKKFLTAGMGISGANIAVAETGTIVLCTNEGNARLTTTVPPVHVAIVGYEKLVPSIKDIVPILEALPRSGTAQPITSYVTMITGPVPAWRGEGEGIKELHVVLLDNGRTRMAADPVFKEALQCIRCASCTNVCPVFQLVSGQVYGYIYNGGIGSVLTAFFNSLEDAVDPQSLCIGCRRCAEVCPAKINIPDLVLKLRERVVTKQGLSSGYRIALHGIVAKPKLMHTLLRAASRLQGPVTHGQPLIRHLPLFFSNLTSGRSLPAIAKEPLRDRVKRLEARTGRPRLKAAFYSGCVIDFAYPEIGEAVYKVLGREGVQVTFPQGQACCGAPAVYAGDRETAVKLAKQNITALEEARADVVVTACPTCAVALKKDFPELLAGEPAWEERARALAKKVKDFTELVHELTGGQGKKVKQAKKSGSGAVKVTYHDSCHFKRHLGLDQVARQVLKEQPGVELVEMQESDRCCGFGGSYSIKYPEISAPILERKLKNITESGAQVVAADCPGCVLQLRGGLDQKGSSIKVKHTAEVLAALENLQGGGNSK”, for which the protein production result was “failed”. Then “MAGKKVVITIGRQYGSGGADTGRRLAEELGFGFYDKNILRMNSDESGIKESYFHLADEKAGNKLLYKIISSLTPEKGAPSFGSDLISADNLFRFQSEVIRKLAAEESCVIIGRCANYVLDGMEGLLRVYLYADIEVREARIREKDLYDEKEVLKNIKRIDRERRDYHRYYTGRDWQELDNYDLVINTTHIGVDGAVAVIKNYLTVMGYDLEKDFH”, with “not failed”.

As for “MAGLSGAQIPDGEFTAVVYRLIRNARYAEAVQLLGGELQRSPRSRAGLSLLGYCYYRLQEFALAAECYEQLGQLHPELEQYRLYQAQALYKACLYAEATRVAFLLLDNPAYHSRVLHLQAAIKYSEGDLPGSRSLVEQLPSREGGEESGGENETDGQINLGCLLYKEGQYEAACSKFFAALQASGYQPDLSYNLALAYYSSRQYASALKHIAEIIERGIRQHPELGVGMTTEGIDVRSVGNTLVLHQTALVEAFNLKAAIEYQLRNYEAAQEALTDMPPRAEEELDPVTLHNQALMNMDARPTEGFEKLQFLLQQNPFPPETFGNLLLLYCKYEYFDLAADVLAENAHLIYKFLTPYLYDFLDAVITCQTAPEEAFIKLDGLAGMLTEVLRKLTIQVQEARHNRDDEAIKKAVNEYDETMEKYIPVLMAQAKIYWNLENYPMVEKIFRKSVEFCNDHDVWKLNVAHVLFMQENKYKEAIGFYEPIVKKHYDNILNVSAIVLANLCVSYIMTSQNEEAEELMRKIEKEEEQLSYDDPDKKMYHLCIVNLVIGTLYCAKGNYDFGISRVIKSLEPYNKKLGTDTWYYAKRCFLSLLENMSKHTIMLRDSVIQECVQFLEHCELHGRNIPAVIEQPLEEERMHVGKNTVTYESRQLKALIYEIIGWNI”, the protein production result was “failed”.
